Patent US20230110188A1 (ARGENX IIP, published 2023)
Changes are numbered by the printed parent chain.

T1: Mouse MuSK as it stands on mouse muscle (neuromuscular junctions, C2C12 myotubes) (mouse, UniProt Q61006 22-868)
T1 sequence (looked up): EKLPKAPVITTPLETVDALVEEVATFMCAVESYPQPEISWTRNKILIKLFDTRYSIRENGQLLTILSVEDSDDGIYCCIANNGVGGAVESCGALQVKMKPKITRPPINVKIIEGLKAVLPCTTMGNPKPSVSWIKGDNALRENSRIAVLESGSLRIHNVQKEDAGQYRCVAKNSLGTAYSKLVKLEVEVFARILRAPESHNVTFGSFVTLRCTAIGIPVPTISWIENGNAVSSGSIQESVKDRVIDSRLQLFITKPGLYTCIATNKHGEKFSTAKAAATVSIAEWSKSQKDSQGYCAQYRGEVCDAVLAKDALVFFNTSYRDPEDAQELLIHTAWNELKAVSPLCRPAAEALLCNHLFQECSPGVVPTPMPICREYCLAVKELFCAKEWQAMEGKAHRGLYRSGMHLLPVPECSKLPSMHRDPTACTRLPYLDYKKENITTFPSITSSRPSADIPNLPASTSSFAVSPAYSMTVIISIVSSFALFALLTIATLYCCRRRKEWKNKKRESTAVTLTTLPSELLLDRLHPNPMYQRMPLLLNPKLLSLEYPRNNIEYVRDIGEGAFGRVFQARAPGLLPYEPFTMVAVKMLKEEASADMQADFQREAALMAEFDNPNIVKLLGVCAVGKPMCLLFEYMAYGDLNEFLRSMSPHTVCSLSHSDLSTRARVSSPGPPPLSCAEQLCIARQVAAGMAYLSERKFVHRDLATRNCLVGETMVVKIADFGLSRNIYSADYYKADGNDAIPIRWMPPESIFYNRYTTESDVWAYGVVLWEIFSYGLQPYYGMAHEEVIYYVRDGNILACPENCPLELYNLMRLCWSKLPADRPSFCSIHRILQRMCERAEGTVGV

T2: Human MuSK (R&D Systems, cat. 10189-MK, histidine tag) (human, UniProt O15146 24-495)
T2 construct: Bought protein; also called human monomeric MuSK-6xhis; not shown: histidine tag (6xhis)
T2 sequence: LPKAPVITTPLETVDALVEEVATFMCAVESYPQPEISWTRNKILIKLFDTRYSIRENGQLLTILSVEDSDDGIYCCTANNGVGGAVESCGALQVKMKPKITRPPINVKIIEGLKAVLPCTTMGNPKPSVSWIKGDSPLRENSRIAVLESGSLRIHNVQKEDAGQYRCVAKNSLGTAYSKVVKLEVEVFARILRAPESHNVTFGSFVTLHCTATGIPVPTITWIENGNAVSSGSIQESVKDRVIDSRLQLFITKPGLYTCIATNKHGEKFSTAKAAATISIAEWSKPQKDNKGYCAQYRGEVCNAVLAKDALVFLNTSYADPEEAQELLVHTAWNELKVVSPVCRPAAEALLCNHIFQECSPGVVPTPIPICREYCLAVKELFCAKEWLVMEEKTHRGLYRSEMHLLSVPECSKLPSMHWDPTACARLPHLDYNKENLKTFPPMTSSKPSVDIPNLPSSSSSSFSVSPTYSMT

T3: hMuSK delta 1-2-3 (Fz) (human, UniProt O15146)
T3 construct: truncated extracellular domain, captured by anti-FLAG
T3 sequence (truncated extracellular domain, looked up): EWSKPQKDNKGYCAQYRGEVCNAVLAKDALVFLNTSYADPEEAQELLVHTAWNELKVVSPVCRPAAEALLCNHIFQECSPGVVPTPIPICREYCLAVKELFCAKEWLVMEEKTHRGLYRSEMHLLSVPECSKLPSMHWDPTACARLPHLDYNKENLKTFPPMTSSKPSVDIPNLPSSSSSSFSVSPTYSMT

B1: 3D10a (antibody, human IgG1, kappa, L234A L235A, V domains shown)
VH: EVQLVESGGGLVKPGGSLRLSCAASGFTFSASTMAWVRQAPGKGLEWVSSVSGDSHHIYYADSLKGRFTISRDNAKNSLYLQMNSLRAEDTAVYYCARERLLRLGVGFDSWGQGTLVTVSS
VL: DIQMTQSPSSLSASVGDRVTITCRASQRISGFVNWYQQKPGKAPKLLIYAASTLQSGVPSRFSGSGSGTDFTLTISSLQPEDFATYYCQQSYSPLYTFGQGTKLEIKR
B2: 3D9b (antibody, human IgG1, kappa, L234A L235A, V domains shown)
VH: EVQLVESGGGLVKPGGSLRLSCAASGFTFSTYTMHWVRQAPGKGLEWVSSISSRSAYKYYADSVKGRFTISRDNAKNSLYLQMNSLRAEDTAVYYCARDFFQLGPPRFDSWGQGTLVTVSS
VL: B1 VL with G31S, V33L, A50G, T53N, L95S
B3: 3F6c (antibody, human IgG1, kappa, L234A L235A, V domains shown)
VH: EVQLVESGGGLVKPGGSLRLSCAASGFTFSSYTMDWVRQAPGKGLEWVSSIGSNGDYIYYADSVRGRFTISRDNAKNSLYLQMNSLRAEDTAVYYCARGQLAVAGTHFDYWGQGTLVTVSS
VL: B1 VL with R28K, I29V, S30N, G31K, F32Y, Y96S
B4: 4D3 (antibody, human IgG1, kappa, L234A L235A, V domains shown)
VH: B1 VH with A31S, S32Y, A35T, V51I, G53S, D54G, S55G, H57Y, A61T, S110F
VL: B1 VL with R28S, F32Y, V33L, P94A

molecular target: T1, Mouse MuSK as it stands on mouse muscle …; test: cell-based or functional assay

First: B1
Second: B2
The “AChR clusters larger or equal to 15 µm (large clusters) compared to agrin; Exp 1, batch Argenx” value of the first is lower: 52 % of agrin for the first, 80 % of agrin for the second.

Compared with B3, B4 is higher in “AChR clusters larger or equal to 15 µm (large clusters) compared to agrin; Exp 1, batch Argenx” value: 56 % of agrin for the first, 84 % of agrin for the second.

Going from B1 to B2, the “AChR clusters larger or equal to 15 µm (large clusters) compared to agrin; Exp 2, batch Argenx” value rises from 73 % of agrin to 74 % of agrin.

Compared with B3, B4 is lower in “AChR clusters larger or equal to 15 µm (large clusters) compared to agrin; Exp 2, batch Argenx” value: 70 % of agrin for the first, 58 % of agrin for the second.

Compared with B1, B2 is higher in “AChR clusters larger or equal to 15 µm (large clusters) compared to agrin; Exp 3, batch UPX” value: 61 % of agrin for the first, 70 % of agrin for the second.

Compared with B3, B4 is higher in “AChR clusters larger or equal to 15 µm (large clusters) compared to agrin; Exp 3, batch UPX” value: 57 % of agrin for the first, 59 % of agrin for the second.

molecular target: T2, Human MuSK (R&D Systems, cat. 10189-MK, …); test: SPR (Biacore), MuSK-coated chip, antibody alone (run of first antibody 4D3)
Procedure: A chip was coated with ˜5000 RU of human MuSK (Lot nr DHUCO 11908A, batch nr 1089_MK). In a first experiment the saturating concentration of the pre-leads was determined. This is the concentration where the amplitude of a specific pre-lead doesn't increase anymore when additional pre-lead is injected on the immobilized MuSK.

Going from B1 to B2, the “amplitude of prelead without presaturating MuSK (RU)” value rises from 951 RU to 1100 RU.

Compared with B3, B4 is lower in “amplitude of prelead without presaturating MuSK (RU)” value: 1010 RU for the first, 859 RU for the second.

molecular target: T2, Human MuSK (R&D Systems, cat. 10189-MK, …); test: SPR (Biacore), antibody captured on anti-hFc chip; 5 nM; dissociation pH 7.4
Description: (§1) In order to study pH dependent binding of our antibodies to MuSK, the Biacore was used with the same setup as described in the paragraph entitled “Binding affinity for mouse, human and rhesus monkey recombinant MuSK in Biacore”. 6. […] For the other antibodies there is no real difference observed between pH 7.4 and 5.5.

Compared with B1, B2 is 1.9-fold lower in koff: 0.00015 s⁻¹ for the first, 8e-05 s⁻¹ for the second.

Going from B3 to B4, the koff rises from 7e-05 s⁻¹ to 0.00014 s⁻¹ (2-fold).

molecular target: T2, Human MuSK (R&D Systems, cat. 10189-MK, …); test: SPR (Biacore), antibody captured on anti-hFc chip; average of 0.3125-10 nM; dissociation pH 5.5
Description: as §1

First: B1
Second: B2
The koff of the first is 2.2-fold higher: 9e-05 s⁻¹ for the first, 4e-05 s⁻¹ for the second.

B3 and B4 are within 1.5-fold of each other in koff: 0.0002 s⁻¹ for the first, 0.00016 s⁻¹ for the second.

molecular target: T3, hMuSK delta 1-2-3 (Fz); test: ELISA, hMuSK delta 1-2-3 (Fz) captured on anti-FLAG coat, antibody titrated, anti-human Fc HRP detection, OD450
Procedure: For binding to MuSK domains—An ELISA plate was coated with 0.5 μg/ml of anti-FLAG (M2 clone, Sigma Cat. F3165) and incubated overnight at 4° C. Next, the plate was washed with PBS and blocked with 1×PBS 1% casein for two hours at RT. After washing the plate, human monomeric MuSK FLAG streptavidin (batch 27-6-2019) and truncated MuSK variants (batch 3-9-2019) at 1 μg/ml in PBS where incubated for one hour at RT. After washing the plate, antibodies were diluted in blocking buffer and added to the plate. After a one hour incubation at RT, the plate was washed. Next, detecting antibody was added and incubated for one hour at RT (anti-human Fc HRP (1/5000) (clone 5A9, cat. No. Ab7499, ABCAM)) in blocking buffer. Lastly, the plate was washed with PBS and TMB was added and the reaction was stopped with 0.5 M H2SO4. OD 450 nm was determined by the Tecan Sunrise ELISA plate reader.
For the MuSK domain binding ELISA, binding of anti-MuSK antibodies to FLAG captured human monomeric MuSK and truncated variants was tested (FIG. 6). 3D9b, 3F6c, 3D10a, 4D3 and 3B5 bound only to full length MuSK, no binding was observed against the truncated MuSK variants. Therefore, we conclude that our antibodies bind to the Ig1 domain.

B1: no binding (tested: log(conc) 4.2 (about 16000 ng/ml)).
B2: no binding (tested: log(conc) 4.2 (about 16000 ng/ml)).
B3: no binding (tested: log(conc) 4.2 (about 16000 ng/ml)).
B4: no binding (tested: log(conc) 4.2 (about 16000 ng/ml)).
